Data reported in paper PMC10786891, “Massively parallel profiling of RNA-targeting CRISPR-Cas13d”.
Residue numbers refer to the chain shown, from its start. Names may count otherwise.

T1: EsCas13d, nuclease-dead (Eubacterium siraeum, UniProt B0MS50, R295A;H300A;R849A;H854A)
T1 sequence: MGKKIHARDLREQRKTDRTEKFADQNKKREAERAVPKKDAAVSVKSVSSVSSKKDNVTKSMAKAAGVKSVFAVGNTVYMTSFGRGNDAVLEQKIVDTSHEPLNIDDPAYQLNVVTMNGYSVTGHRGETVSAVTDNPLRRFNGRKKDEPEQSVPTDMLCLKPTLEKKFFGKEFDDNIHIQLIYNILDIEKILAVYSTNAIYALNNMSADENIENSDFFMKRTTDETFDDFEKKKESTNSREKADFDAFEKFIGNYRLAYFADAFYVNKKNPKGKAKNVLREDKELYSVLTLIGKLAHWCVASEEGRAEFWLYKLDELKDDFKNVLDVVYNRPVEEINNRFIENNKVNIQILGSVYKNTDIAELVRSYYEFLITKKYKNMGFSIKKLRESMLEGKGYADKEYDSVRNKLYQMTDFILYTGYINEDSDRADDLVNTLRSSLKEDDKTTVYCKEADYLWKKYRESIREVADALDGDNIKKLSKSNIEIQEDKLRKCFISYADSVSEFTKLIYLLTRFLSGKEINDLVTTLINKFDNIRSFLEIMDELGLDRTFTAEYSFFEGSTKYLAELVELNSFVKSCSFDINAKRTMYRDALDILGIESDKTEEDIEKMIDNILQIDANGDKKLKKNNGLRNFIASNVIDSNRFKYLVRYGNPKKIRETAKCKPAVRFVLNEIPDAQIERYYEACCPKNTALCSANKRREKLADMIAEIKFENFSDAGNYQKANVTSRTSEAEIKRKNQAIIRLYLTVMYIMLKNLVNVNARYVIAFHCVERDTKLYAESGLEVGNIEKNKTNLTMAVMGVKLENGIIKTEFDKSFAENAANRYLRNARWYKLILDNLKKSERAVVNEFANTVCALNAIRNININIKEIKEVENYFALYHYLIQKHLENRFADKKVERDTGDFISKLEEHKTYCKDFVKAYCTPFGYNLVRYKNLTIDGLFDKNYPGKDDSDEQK

B1: target 2 MT 5'PFS GUG 3'PFS UAA (mixed)
RNA 1: CACCCGUGCAAAAUUGCAGGGGUCUAAAACCUUCUCCAAAUUGUUUCAUCCU
RNA 2: GGGAAUGGAUCCACAUCUACGAAUUCGUGAGGAUGAAACAAUUUGGAGAAGUAAAGAUCGGAAGAGCACACGU
B2: target 2 MT 5'PFS GCG 3'PFS AAU (mixed)
RNA 1: B1 RNA 1
RNA 2: B1 RNA 2 with U28C, U52A, A54U
B3: target 2 MT 5'PFS UCU 3'PFS CUA (mixed)
RNA 1: B1 RNA 1
RNA 2: B1 RNA 2 with G27U, U28C, G29U, U52C, A53U
B4: target 2 MT 5'PFS GCA 3'PFS ACC (mixed)
RNA 1: B1 RNA 1
RNA 2: B1 RNA 2 with U28C, G29A, U52A, A53C, A54C
B5: target 2 MT 5'PFS CUG 3'PFS AAU (mixed)
RNA 1: B1 RNA 1
RNA 2: B1 RNA 2 with G27C, U52A, A54U
B6: target 2 MT 5'PFS UCU 3'PFS CUU (mixed)
RNA 1: B1 RNA 1
RNA 2: B1 RNA 2 with G27U, U28C, G29U, U52C, A53U, A54U
B7: target 2 MT 5'PFS UUC 3'PFS UCC (mixed)
RNA 1: B1 RNA 1
RNA 2: B1 RNA 2 with G27U, G29C, A53C, A54C
B8: target 2 MT 5'PFS UAC 3'PFS CAC (mixed)
RNA 1: B1 RNA 1
RNA 2: B1 RNA 2 with G27U, U28A, G29C, U52C, A54C
B9: target 2 MT 5'PFS CUG 3'PFS AAA (mixed)
RNA 1: B1 RNA 1
RNA 2: B1 RNA 2 with G27C, U52A
B10: target 2 MT 5'PFS UAC 3'PFS CAA (mixed)
RNA 1: B1 RNA 1
RNA 2: B1 RNA 2 with G27U, U28A, G29C, U52C
B11: target 2 MT 5'PFS UAG 3'PFS UUC (mixed)
RNA 1: B1 RNA 1
RNA 2: B1 RNA 2 with G27U, U28A, A53U, A54C
B12: target 2 MT 5'PFS AAC 3'PFS CUU (mixed)
RNA 1: B1 RNA 1
RNA 2: B1 RNA 2 with G27A, U28A, G29C, U52C, A53U, A54U
B13: target 2 MT 5'PFS AUG 3'PFS AGA (mixed)
RNA 1: B1 RNA 1
RNA 2: B1 RNA 2 with G27A, U52A, A53G
B14: target 2 MT 5'PFS AUG 3'PFS AGU (mixed)
RNA 1: B1 RNA 1
RNA 2: B1 RNA 2 with G27A, U52A, A53G, A54U
B15: target 2 MT 5'PFS CGC 3'PFS AAC (mixed)
RNA 1: B1 RNA 1
RNA 2: B1 RNA 2 with G27C, U28G, G29C, U52A, A54C
B16: target 2 MT 5'PFS AAG 3'PFS UUA (mixed)
RNA 1: B1 RNA 1
RNA 2: B1 RNA 2 with G27A, U28A, A53U
B17: target 2 MT 5'PFS CGC 3'PFS AAG (mixed)
RNA 1: B1 RNA 1
RNA 2: B1 RNA 2 with G27C, U28G, G29C, U52A, A54G
B18: target 2 MT 5'PFS AUU 3'PFS CUU (mixed)
RNA 1: B1 RNA 1
RNA 2: B1 RNA 2 with G27A, G29U, U52C, A53U, A54U
B19: target 2 MT 5'PFS AAA 3'PFS AUA (mixed)
RNA 1: B1 RNA 1
RNA 2: B1 RNA 2 with G27A, U28A, G29A, U52A, A53U
B20: target 2 MT 5'PFS GCA 3'PFS ACG (mixed)
RNA 1: B1 RNA 1
RNA 2: B1 RNA 2 with U28C, G29A, U52A, A53C, A54G
B21: target 2 MT 5'PFS AAC 3'PFS CUG (mixed)
RNA 1: B1 RNA 1
RNA 2: B1 RNA 2 with G27A, U28A, G29C, U52C, A53U, A54G
B22: target 2 MT 5'PFS AAC 3'PFS CUC (mixed)
RNA 1: B1 RNA 1
RNA 2: B1 RNA 2 with G27A, U28A, G29C, U52C, A53U, A54C
B23: target 2 MT 5'PFS CGC 3'PFS AAA (mixed)
RNA 1: B1 RNA 1
RNA 2: B1 RNA 2 with G27C, U28G, G29C, U52A
B24: target 2 MT 5'PFS GUG 3'PFS UAU (mixed)
RNA 1: B1 RNA 1
RNA 2: B1 RNA 2 with A54U
B25: target 2 MT 5'PFS GGC 3'PFS UAG (mixed)
RNA 1: B1 RNA 1
RNA 2: B1 RNA 2 with U28G, G29C, A54G
B26: target 2 MT 5'PFS UCU 3'PFS CUC (mixed)
RNA 1: B1 RNA 1
RNA 2: B1 RNA 2 with G27U, U28C, G29U, U52C, A53U, A54C
B27: target 2 MT 5'PFS UAG 3'PFS UUA (mixed)
RNA 1: B1 RNA 1
RNA 2: B1 RNA 2 with G27U, U28A, A53U
B28: target 2 MT 5'PFS CUG 3'PFS AAG (mixed)
RNA 1: B1 RNA 1
RNA 2: B1 RNA 2 with G27C, U52A, A54G
B29: target 2 MT 5'PFS GCA 3'PFS ACA (mixed)
RNA 1: B1 RNA 1
RNA 2: B1 RNA 2 with U28C, G29A, U52A, A53C
B30: target 2 MT 5'PFS UAC 3'PFS CAG (mixed)
RNA 1: B1 RNA 1
RNA 2: B1 RNA 2 with G27U, U28A, G29C, U52C, A54G
B31: target 2 MT 5'PFS GCG 3'PFS AAC (mixed)
RNA 1: B1 RNA 1
RNA 2: B1 RNA 2 with U28C, U52A, A54C
B32: target 2 MT 5'PFS CUG 3'PFS AAC (mixed)
RNA 1: B1 RNA 1
RNA 2: B1 RNA 2 with G27C, U52A, A54C
B33: target 1 U3G,G17C (mixed)
RNA 1: CACCCGUGCAAAAAUGCAGGGGUCUAAAACUGAGCGGAUAACCUCUCUAUGG
RNA 2: GGGAAUGGAUCCACAUCUACGAAUUCGUACCAUACAGAGGUUAUCCGCGCACCGAGAUCGGAAGAGCACACGU
B34: target 1 C2A,C21U (mixed)
RNA 1: B33 RNA 1
RNA 2: B33 RNA 2 with C31U, C35G, G49U, C50A
B35: target 1 insA 3' of 12,insA 3' of 4 (mixed)
RNA 1: B33 RNA 1
RNA 2: GGGAAUGGAUCCACAUCUACGAAUUCGUACCAUAGAGAGGAUUAUCCGCAUCACCGAGAUCGGAAGAGCACACGU
B36: target 1 G13U,A16C (mixed)
RNA 1: B33 RNA 1
RNA 2: B33 RNA 2 with C35G, A36C, G39U, G49U
B37: target 1 C2U,U10A (mixed)
RNA 1: B33 RNA 1
RNA 2: B33 RNA 2 with C35G, U42A, G49U, C50U

Molecular target: T1, EsCas13d, nuclease-dead
Assay: crRNA (strand 1, pre-loaded); Mg2+; 40 mM Tris-HCl pH 7.5, 150 mM NaCl, 6 mM MgCl2, 1 mM DTT, 0.1% Tween-20, 0.2 mg/ml BSA; 25 C; 10 min per concentration, then washed
Conditions: tags: His6-TwinStrep-SUMO cleaved; N-terminal SNAP kept (SNAP-Surface 488); label: 3' end held by stalled T7 RNA polymerase

Binder	Kd
B1	9 ± 0.7 nM
B2	8.4 ± 1.3 nM
B3	20 ± 6 nM
B4	~36 nM
B5	3.6 ± 0.5 nM
B6	14.1 ± 2.5 nM
B7	19.6 ± 3 nM
B8	5.3 ± 1 nM
B9	2.9 ± 0.32 nM
B10	6 ± 1.1 nM
B11	7.2 ± 0.9 nM
B12	9.1 ± 2.7 nM
B13	15 ± 5 nM
B14	11.1 ± 1.6 nM
B15	4.9 ± 0.5 nM
B16	6.8 ± 1.3 nM
B17	4 ± 0.6 nM
B18	10 ± 1 nM
B19	4.4 ± 1 nM

Binder	Kd
B20	13.3 ± 2 nM
B21	7.3 ± 1.3 nM
B22	9 ± 3 nM
B23	5.8 ± 1.6 nM
B24	9.5 ± 0.7 nM
B25	13.1 ± 2 nM
B26	9.3 ± 1.6 nM
B27	8.1 ± 1.6 nM
B28	3 ± 0.4 nM
B29	10.2 ± 1.7 nM
B30	8.5 ± 3 nM
B31	15 ± 4 nM
B32	3.4 ± 0.4 nM
B33	36.7 ± 2.8 nM
B34	8.2 ± 0.5 nM
B35	19.2 ± 1.2 nM
B36	68 ± 14 nM
B37	11.6 ± 1.4 nM
